According to patent publication US20140322825A1 (UNIVERSITY OF MARYLAND BALTIMORE, published 2014):

T1: asialo-glycophorin A (aGPA) (human, UniProt P02724 20-150, desialylated by mild acid treatment; carries O-linked TFα (Galβ1-3GalNAcα) structures; biotinylated in the flow cytometry assays)
T1 construct: The lambody recognises the glycans on this glycoprotein; also called asialo-GPA
T1 sequence (looked up): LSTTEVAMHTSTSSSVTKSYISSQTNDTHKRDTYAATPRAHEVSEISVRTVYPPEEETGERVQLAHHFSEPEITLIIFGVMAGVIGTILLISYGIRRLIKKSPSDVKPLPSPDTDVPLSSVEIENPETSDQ


Tests used:
[1] = target: T1, asialo-glycophorin A (aGPA); assay: SPR (Biacore T200), lambody captured via anti-His mAb, aGPA as analyte, 1:1 Langmuir fit
Method: All SPR binding experiments were performed using Biacore T200 (GE Healthcare). The running and sample buffer was HBS-EP+ (10 mM HEPES, pH 7.4, 150 mM NaCl, 3 mM EDTA, 0.05% Polysorbate 20). All measurements were performed at 25° C. Anti-His antibody (His capture kit, GE Healthcare) was immobilized by amine coupling to Sensor Chip CM5. […] Regeneration of the anti-His surface was accomplished using a 60 second injection of 10 mM glycine-HCl pH 1.5. The reference subtracted SPR binding curves were blank subtracted, and curve fitting was performed with a 1:1 model to obtain kinetic parameters using the Biacore T200 Evaluation software.

[2] = target: T1, asialo-glycophorin A (aGPA); assay: SPR (Biacore T200), lambody captured by anti-His mAb, aGPA as analyte at 312 pM to 20 nM, 1:1 Langmuir fit
Method: Reference subtracted and blank subtracted binding data were fitted with a 1:1 Langmuir binding model to determine the association and dissociation constants. The equilibrium dissociation constants were calculated from these values.
(§1) All SPR binding experiments were performed using Biacore T200 (GE Healthcare). The running and sample buffer was HBS-EP+ (10 mM HEPES, pH 7.4, 150 mM NaCl, 3 mM EDTA, 0.05% Polysorbate 20). All measurements were performed at 25° C. Anti-His antibody (His capture kit, GE Healthcare) was immobilized by amine coupling to Sensor Chip CM5. VLRB.aGPA.23 and Mut.10 were diluted to 10 μg/mL and injected in each cycle at 10 μL/min for 30 seconds, to capture approximately 300 RU. […] Regeneration of the anti-His surface was accomplished using a 60 second injection of 10 mM glycine-HCl pH 1.5. The reference subtracted SPR binding curves were blank subtracted, and curve fitting was performed with a 1:1 model to obtain kinetic parameters using the Biacore T200 Evaluation software.

[3] = target: T1, asialo-glycophorin A (aGPA); assay: SPR (Biacore T200), lambody captured via anti-His mAb, aGPA as analyte
Method: as §1

Binder	Kd [1] [nM]	Kd [2] [nM]	koff [2] [s⁻¹]	kon [2] [M⁻¹ s⁻¹]	fold higher affinity than VLRB.aGPA.23 [3] [fold]
lambody VLRB.aGPA.23 (as used in SPR) (other, Dimeric, yeast-secreted lambody captured on the chip through an anti-His antibody; also called VLRB.GPA.23; not shown: 6-His and FLAG tags plus a dimerization domain) ACPSQCSCSGTEVNCAGKSLASVPAGIPTTTRVLYLNSNQITKLEPGVFDRLANLRELHLWGNQLVSLPPGVFDNLANLEKLWLNSNQLTSLPAGLFDRLVNLEHLGLCCMKLTELPSGAFDKLTRLKQLGLDQNQLKSIPDGAFARLPSLTHVWLHTNPWDCQCTDILYLSGWVAQHSSIVGEGWPWRHSPDSAKCSGTNTPVRAVTEASTSPSKCP	1.1	1.09	0.000331	303000	–
Mut.10 (affinity-improved clone of VLRB.aGPA.23) (other, also called clone Mut.10; not shown: 6-His and FLAG tags plus a dimerization domain) ACPSQCSCSGTEVNCAGKNLASVPAGIPTTTRVLYLNSNQITKLEPGVFDRLANLRELHLWGNQLVSLPPGVFDNLANLEKLWLNGNQLTSLPAGLFDRLVNLERLGLCCMMLTELPSGAFDKLTRLKQLGLDQNQLKSIPDGAFARLPSLTHVWLHTNPWDCQCTDILYLSGWVAQHSSIVGEGWPWRHSPDSAKCSGTNTPVRAVSEASTSPSKCP	–	0.637	0.000222	349000	1.7
